The labels stand for the following.
B1: Nb22: LRRK2-specific Nanobody, SEQ ID NO: 9 (protein)
VHH: MAQVQLVESGGGLVQAGGSLRLSCAASGRTFSSYTMGWFRQAPGKEREFVAAIRWSGGSTYYADSVKGRFTISRDNAKNTVYLQMNSLKPEDTAVYYCAASDRGGFIATSGGWMDYWGKGTQVTVSS
modifications: Nanobody CA13611
B2: Nb23: LRRK2-specific Nanobody, SEQ ID NO: 3 (protein)
VHH: MAQVQLVESGGGLVQAGGSLRLSCAASGRTFSRYTMGWFRQAPGKDREFVARITTSGAVTTYADSAKGRFTISRDNAKNTVYLQMNTLKPEDTAVYYCAAGQGQLSSQSRFVDYWGQGTQVTVSS
modifications: Nanobody CA13612
B3: Nb42: LRRK2-specific Nanobody, SEQ ID NO: 6 (protein)
VHH: MAQVQLVESGGGLVQAGGSLRLSCAASGDVNYAVGWFRQAPRKEREFVAAINWRGDNTDYTDSVKGRFTISRDNAKNTVYLQMNSLKPEDTAVYYCAAKSAPYWYSDIAPDYWGQGTQVTVSS
modifications: Nanobody CA14259
B4: Nb6: LRRK2-specific Nanobody, SEQ ID NO: 2 (protein)
VHH: MAQVQLVESGGGLVQAGGSLRLSCAASGSIFSPTAMGWYRQAPGKERELVAGITSGGYTNYRNFARGRFTISRDNAKKTVYLQMNSLNPEDTAVYYCNTLTISWSWGQGTQVTVSS
modifications: Nanobody CA12618
B5: Nb1: LRRK2-specific Nanobody, SEQ ID NO: 1 (protein)
VHH: MAQVQLVESGGGLVQAGGSLRLSCVASGRIFSGNAMGWYRQAPGRQRELVAGITNGGYTNYRQFVKGRFTISRDNAKRTVYLQMNSLKPEDTAVYYCNALDREARQVDYWGQGTQVTVSS
modifications: Nanobody CA12610

The text below walks through data of US20230087785A1, “Leucine-Rich Repeat Kinase 2 Allosteric Modulators” (VIB VZW, priority 2020, published 2023).

T1 sequence (Q5S007 whole entry R50H/M2397T): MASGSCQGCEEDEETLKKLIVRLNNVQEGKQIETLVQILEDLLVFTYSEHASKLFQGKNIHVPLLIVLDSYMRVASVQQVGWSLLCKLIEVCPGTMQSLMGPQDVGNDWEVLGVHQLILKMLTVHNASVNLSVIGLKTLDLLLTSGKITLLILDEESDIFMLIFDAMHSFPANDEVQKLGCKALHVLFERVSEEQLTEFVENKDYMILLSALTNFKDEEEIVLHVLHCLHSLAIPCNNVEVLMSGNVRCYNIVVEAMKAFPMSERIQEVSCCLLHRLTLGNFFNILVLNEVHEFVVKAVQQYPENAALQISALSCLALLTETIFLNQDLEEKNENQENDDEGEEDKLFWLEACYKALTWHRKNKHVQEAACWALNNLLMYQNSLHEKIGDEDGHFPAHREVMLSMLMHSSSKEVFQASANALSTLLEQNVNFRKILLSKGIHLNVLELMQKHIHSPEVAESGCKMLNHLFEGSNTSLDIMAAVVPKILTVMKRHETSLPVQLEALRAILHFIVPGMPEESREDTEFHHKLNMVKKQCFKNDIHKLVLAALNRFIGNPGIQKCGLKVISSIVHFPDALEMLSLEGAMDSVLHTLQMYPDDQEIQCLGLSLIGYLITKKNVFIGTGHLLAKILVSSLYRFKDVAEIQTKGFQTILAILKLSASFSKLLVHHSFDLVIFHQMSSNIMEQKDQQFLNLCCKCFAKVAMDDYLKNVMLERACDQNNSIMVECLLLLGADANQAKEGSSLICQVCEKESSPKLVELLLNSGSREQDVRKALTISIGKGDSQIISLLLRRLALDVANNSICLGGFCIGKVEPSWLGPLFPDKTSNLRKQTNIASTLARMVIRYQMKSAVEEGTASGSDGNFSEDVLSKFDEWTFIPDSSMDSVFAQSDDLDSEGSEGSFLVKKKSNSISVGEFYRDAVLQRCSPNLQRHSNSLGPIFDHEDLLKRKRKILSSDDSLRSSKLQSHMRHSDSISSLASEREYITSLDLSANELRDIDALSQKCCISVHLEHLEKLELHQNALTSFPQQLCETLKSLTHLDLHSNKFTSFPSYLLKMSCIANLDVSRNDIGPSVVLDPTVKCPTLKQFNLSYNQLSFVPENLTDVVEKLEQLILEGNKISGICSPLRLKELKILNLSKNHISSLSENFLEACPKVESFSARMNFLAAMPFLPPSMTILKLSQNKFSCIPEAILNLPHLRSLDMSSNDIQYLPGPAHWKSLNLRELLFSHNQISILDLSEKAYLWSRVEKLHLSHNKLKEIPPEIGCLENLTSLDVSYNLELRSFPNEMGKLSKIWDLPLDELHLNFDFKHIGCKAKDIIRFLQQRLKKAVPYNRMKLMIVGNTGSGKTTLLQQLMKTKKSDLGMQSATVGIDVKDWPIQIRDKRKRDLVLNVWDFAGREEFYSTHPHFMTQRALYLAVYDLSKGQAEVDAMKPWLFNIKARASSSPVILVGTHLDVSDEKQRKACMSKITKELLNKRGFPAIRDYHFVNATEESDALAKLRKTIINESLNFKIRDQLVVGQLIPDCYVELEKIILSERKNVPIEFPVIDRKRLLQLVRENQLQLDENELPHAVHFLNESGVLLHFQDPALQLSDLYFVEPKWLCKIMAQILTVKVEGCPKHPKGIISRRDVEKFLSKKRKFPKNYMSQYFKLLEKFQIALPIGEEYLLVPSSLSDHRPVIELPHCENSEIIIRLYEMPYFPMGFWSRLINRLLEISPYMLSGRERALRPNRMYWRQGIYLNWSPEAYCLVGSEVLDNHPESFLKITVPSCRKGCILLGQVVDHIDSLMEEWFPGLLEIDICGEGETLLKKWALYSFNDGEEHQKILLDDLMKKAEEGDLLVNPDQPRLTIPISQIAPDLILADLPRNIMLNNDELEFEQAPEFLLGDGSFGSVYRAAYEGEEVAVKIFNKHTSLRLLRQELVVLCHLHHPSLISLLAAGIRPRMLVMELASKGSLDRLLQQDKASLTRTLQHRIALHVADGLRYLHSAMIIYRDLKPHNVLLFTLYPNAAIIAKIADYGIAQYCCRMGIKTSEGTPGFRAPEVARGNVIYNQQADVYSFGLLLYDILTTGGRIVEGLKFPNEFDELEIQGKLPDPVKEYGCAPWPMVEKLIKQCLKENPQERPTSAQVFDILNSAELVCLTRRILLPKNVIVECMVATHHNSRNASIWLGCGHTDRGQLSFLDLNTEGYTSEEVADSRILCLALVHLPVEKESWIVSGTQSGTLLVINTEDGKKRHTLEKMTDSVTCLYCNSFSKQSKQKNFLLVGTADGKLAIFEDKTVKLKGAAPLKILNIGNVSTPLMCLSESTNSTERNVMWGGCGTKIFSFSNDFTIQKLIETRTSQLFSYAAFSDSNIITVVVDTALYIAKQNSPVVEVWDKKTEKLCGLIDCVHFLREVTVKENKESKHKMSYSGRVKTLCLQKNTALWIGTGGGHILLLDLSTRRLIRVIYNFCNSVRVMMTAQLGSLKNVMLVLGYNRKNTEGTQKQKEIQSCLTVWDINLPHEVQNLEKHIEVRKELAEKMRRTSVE

The first data set addresses T1, mScarlet-LRRK2 (Homo sapiens, UniProt Q5S007, M2397T/R50H).
T1 construct: expressed in transfected cells; host or cells: HEK293
The experiment in a line: Confocal microscopy of LRRK2 microtubule localization in HEK293 cells. It counts as cell-based. To be noted: HEK293 cells co-transfected with mScarlet-LRRK2 and GFP-Nb, treated with 1 μM MLi-2. The source says:
HEK 293 cells were co-transfected with the indicated GFP-Nbs and mScarlet-LRRK2. […] Scale bar 5 μm.
FIG. 6. […] Scale bar 5 μm.
The binding of LRRK2 to microtubules subsequently reduces the kinesin—and dynein-mediated transport along microtubules.
Recent structural information has linked LRRK2 microtubule relocalization to the conformation of the kinase domain, with a closed conformation favoring LRRK2 binding to microtubules. As a consequence, the commonly used ATP-competitive type I LRRK2 inhibitors trigger this effect. In addition, it was shown before that the WD40 domain is indispensable for LRRK2-microtubule association.
A HEK293 cell line was cultured in complete media (high-glucose Dulbecco's modified Eagle's medium, 10% fetal bovine serum and Penicillin-Streptomycin-Glutamine (Gibco)). Cells were seeded on 8-well p-Slide(Ibidi) and transfected at a confluency of 50-70% with GFP-Nb and mScarlet-LRRK2 constructs, using JetPEI reagent (Polyplus transfection). […] Data acquisition was done with a ×100 oil-immersion objective with a Zeiss LSM800 confocal laser scanning microscope. Image analysis of z-scan was done using the Zeiss microscope software ZEN.
B1: the “effect on MLi-2-induced recruitment of LRRK2 to microtubules” value is recorded as “rescuing effect is most prominent”.

On to B2, for which the “effect on MLi-2-induced recruitment of LRRK2 to microtubules” value is recorded as “rescuing effect is most prominent”.

For a further data set, the target named is T2, LRRK2(G2019S) (Homo sapiens, UniProt Q5S007, G2019S/M2397T/R50H).
T2 construct: SF tag (FLAG + Twin-Strep); expressed in transfected cells; host or cells: HEK 293T
T2 sequence (Q5S007 whole entry R50H/G2019S/M2397T): as the sequence (Q5S007 whole entry R50H/M2397T) above, with G2019S counted along it
Nature of the data set: In cellulo phospho-Rab / LRRK2 autophosphorylation assay in HEK293T cells. The class given is cell-based. More on the design: key to Functional Group (see FIG. 2d): Group 1: group 1: Nbs that inhibit both LRRK2 autophosphorylation and Rab10 phosphorylation in cells; Group 2: group 2: Nbs that inhibit only Rab10 phosphorylation; Group 3: group 3: Nbs that activate LRRK2 kinase activity; Group 4: group 4: Nbs that have no consistent/clear effect on LRRK2 kinase activity. The conditions noted are these: HEK 293T cells co-expressing LRRK2(G2019S), Rab29 and Nb-GFP. The procedure, abridged: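 Cells co-transfected (PEI) with SF-tagged LRRK2(G2019S), FLAG-HA Rab29 and Nb-GFP fusions, lysed after 48 hrs. Western blot read LRRK2 pS1292 and endogenous Rab10 pT72 with site-specific antibodies, referenced to total LRRK2 and Rab10; ECL chemiluminescence on film.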
With B3, the “LRRK2 autophosphorylation at position S1292” value (from here on “LRRK2 autophosphorylation”) is “inhibit both Rab10 phosphorylation and LRRK2 autophosphorylation at S1292”.

In the case of B4, the “LRRK2 autophosphorylation” value is “inhibit both Rab10 phosphorylation and LRRK2 autophosphorylation at S1292”.

Consider B5, for which the “LRRK2 autophosphorylation” value was “inhibit both Rab10 phosphorylation and LRRK2 autophosphorylation at S1292”.

Regarding B2, the “LRRK2 autophosphorylation” value is “inhibit both Rab10 phosphorylation and LRRK2 autophosphorylation at S1292”.

The same data set, now with this note: HEK 293T cells co-expressing LRRK2(G2019S), Rab29 and Nb-GFP; Western blot.
Take B3: the “influence on LRRK2 kinase activity compared to the controls” value (shortened to “influence … compared to the controls”) is “strongly decreased LRRK2 autophosphorylation and/or Rab10 phosphorylation”.

Consider B4, for which the “influence … compared to the controls” value was “strongly decreased LRRK2 autophosphorylation and/or Rab10 phosphorylation”.

For B1, the “influence … compared to the controls” value is on record as “significant increase of LRRK2 kinase activity”.

In the case of B5, the “influence … compared to the controls” value is “strongly decreased LRRK2 autophosphorylation and/or Rab10 phosphorylation”.

As for B2, the “influence … compared to the controls” value is given as “strongly decreased LRRK2 autophosphorylation and/or Rab10 phosphorylation”.

Still in this data set, the particulars now being: classification by effect on in cellulo LRRK2(G2019S) kinase activity.
On to B3, for which the “Functional Group (see FIG. 2d)” value is recorded as “Group 1”.

With B4, the “Functional Group (see FIG. 2d)” value is “Group 1”.

As for B1, the “Functional Group (see FIG. 2d)” value is “Group 3”.

B5: the “Functional Group (see FIG. 2d)” value is on record as “Group 1”.

For B2, the “Functional Group (see FIG. 2d)” value was “Group 1”.

Staying with this data set, now noted: endogenous Rab10; HEK 293T cells co-expressing LRRK2(G2019S), Rab29 and Nb-GFP.
As to B3, the “Rab10 phosphorylation at position T72” value was “inhibit both Rab10 phosphorylation and LRRK2 autophosphorylation at S1292”.

As for B4, the “Rab10 phosphorylation at position T72” value was “inhibit both Rab10 phosphorylation and LRRK2 autophosphorylation at S1292”.

With B1, the “Rab10 phosphorylation at position T72” value is “activating Rab10 phosphorylation in cells”.

As for B5, the “Rab10 phosphorylation at position T72” value is “inhibit both Rab10 phosphorylation and LRRK2 autophosphorylation at S1292”.

For the molecule B2, the “Rab10 phosphorylation at position T72” value was “inhibit both Rab10 phosphorylation and LRRK2 autophosphorylation at S1292”.
